# B1: FRUITFULL (FUL), Arabidopsis, in vitro produced (natural protein)
# chain: not shown
# notes: also called FUL(ST); source: in vitro translated (TnT SP6 High-Yield Wheat Germ Protein Expression System, pSPUTK vector)
# Target: the molecule itself
# Assay: native gel or EMSA; in vitro produced proteins (wheat germ TnT) mixed with a DY-682 labelled ~100 bp DNA probe containing a CArG-box (SAUR10 probe); protein complexes read from the shifted bands on DNA; anti-FLAG antibody added for supershift where FUL-FLAG was used
protein,measurement,value
B1,stoichiometry N,2
